Drawing on article PMC2831313 (Nucleic Acids Research, 2009), this text covers Kd for one molecule.

This assay deals with N-biotinylated HapB (Aspergillus nidulans, biotin (N-biotinylated)). In words: SPR. In general terms: SPR reads the build-up and loss of mass on a sensor chip optically.

By Kd is commonly meant the constant that tells how readily two partners part at equilibrium. A higher Kd goes with a looser complex.

B1: HapC/HapE heterodimer (wild-type HapC) (complex)
chain 1: MSSTSPSKEPEVEQEPQSGEEHEQMDKEQDNQTQGQGEFEVKEQDRWLPIANVARIMKLALPENAKIAKEAKECMQECVSEFISFITSEASEKCQQEKRKTVNGEDILFAMTSLGFENYAEALKIYLSKYRETQSARGEHQNRPPSSGYAGGGPVGGAASGPSVVRAGGAAAGGAFPEASDNAGSIMNQGLDPSEQDASAYGYPPMVGQGHNGAGGESY
chain 2: MEQAQQTSGQQQGRQQPVYDTRQGGHYGASAALAAQGFAPVAELYTGTWANVNQGLQGTARDILTTYWQHVINHLESDNHDYKIHQLPLARIKKVMKADPEVKMISAEAPILFAKGCDVFITELTMRAWIHAEDNKRRTLQRSDIAAALSKSDMFDFLIDIVPREEATSHAKRSSQSAGAPAGPGGPTAAGQLPQTQHGVQHHPHHMAPPDYGALGQHPLQDQEYRQQTMYGGAVQSDPTAAYAQPQTQMFEGMYTAYPHLPPQQ
With B1, the dissociation constant (Kd) is 35.3 nM.
